# Patent US20220251162A1
# Where no end group is shown, it is not given here.
# Biological target: human PAC1 receptor (human), P41586
# Assay: cell-based or functional assay
# human PAC1 receptor (human), P41586, sequence (P41586 21-468): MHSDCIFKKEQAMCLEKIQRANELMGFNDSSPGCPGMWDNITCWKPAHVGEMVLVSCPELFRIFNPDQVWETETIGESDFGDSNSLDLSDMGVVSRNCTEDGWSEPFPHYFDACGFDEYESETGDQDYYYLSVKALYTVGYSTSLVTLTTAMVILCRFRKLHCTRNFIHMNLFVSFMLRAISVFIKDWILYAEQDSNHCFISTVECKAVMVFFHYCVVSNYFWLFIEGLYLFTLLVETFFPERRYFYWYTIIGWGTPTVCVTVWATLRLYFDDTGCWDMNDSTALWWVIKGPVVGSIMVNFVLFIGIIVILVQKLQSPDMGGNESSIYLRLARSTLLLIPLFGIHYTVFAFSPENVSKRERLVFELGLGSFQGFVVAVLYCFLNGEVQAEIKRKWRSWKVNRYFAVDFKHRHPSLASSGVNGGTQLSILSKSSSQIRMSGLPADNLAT
Binder,cAMP (fmol) at 10 nM,cAMP (fmol) at 100 nM,cAMP (fmol) at 1 µM,cAMP (fmol) at 10 µM,cAMP (fmol) at 1 nM
HSDGIFAPGNSVFKECMKQKKKEFKAGK (ends and bridges not checked) [MAXCAP 4],4060 fmol,6400 fmol,6400 fmol,5780 fmol,–
HSDGIFTDSYSSRYRKQMAVKKYLAAVLPGNSVFKECMKQKKKEFKAGK (ends and bridges not checked) [MAXCAP 1],6220 fmol,4710 fmol,–,–,3170 fmol
